Data as given in paper PMC9348906 (Science (New York, N.Y.), 2022).
Values joined by “and” are separate entries in the source; they are usually repeats but may differ in a detail not shown here. Identical values can stand only once. Like-named read-outs stand apart in the source and are kept apart here.

Experiments:
Experiment in all cases: SEC-MALS
[1] = target: C. thermophilum coat nup complex (CNC) (C. thermophilum) (UniProt G0S2X1)
[2] = target: the molecule itself
[3] = target: the molecule itself; remark: listed apart in the source

Chain of C. thermophilum cytoplasmic filament nup complex (CFNC) (G0SAK3 whole entry, looked up): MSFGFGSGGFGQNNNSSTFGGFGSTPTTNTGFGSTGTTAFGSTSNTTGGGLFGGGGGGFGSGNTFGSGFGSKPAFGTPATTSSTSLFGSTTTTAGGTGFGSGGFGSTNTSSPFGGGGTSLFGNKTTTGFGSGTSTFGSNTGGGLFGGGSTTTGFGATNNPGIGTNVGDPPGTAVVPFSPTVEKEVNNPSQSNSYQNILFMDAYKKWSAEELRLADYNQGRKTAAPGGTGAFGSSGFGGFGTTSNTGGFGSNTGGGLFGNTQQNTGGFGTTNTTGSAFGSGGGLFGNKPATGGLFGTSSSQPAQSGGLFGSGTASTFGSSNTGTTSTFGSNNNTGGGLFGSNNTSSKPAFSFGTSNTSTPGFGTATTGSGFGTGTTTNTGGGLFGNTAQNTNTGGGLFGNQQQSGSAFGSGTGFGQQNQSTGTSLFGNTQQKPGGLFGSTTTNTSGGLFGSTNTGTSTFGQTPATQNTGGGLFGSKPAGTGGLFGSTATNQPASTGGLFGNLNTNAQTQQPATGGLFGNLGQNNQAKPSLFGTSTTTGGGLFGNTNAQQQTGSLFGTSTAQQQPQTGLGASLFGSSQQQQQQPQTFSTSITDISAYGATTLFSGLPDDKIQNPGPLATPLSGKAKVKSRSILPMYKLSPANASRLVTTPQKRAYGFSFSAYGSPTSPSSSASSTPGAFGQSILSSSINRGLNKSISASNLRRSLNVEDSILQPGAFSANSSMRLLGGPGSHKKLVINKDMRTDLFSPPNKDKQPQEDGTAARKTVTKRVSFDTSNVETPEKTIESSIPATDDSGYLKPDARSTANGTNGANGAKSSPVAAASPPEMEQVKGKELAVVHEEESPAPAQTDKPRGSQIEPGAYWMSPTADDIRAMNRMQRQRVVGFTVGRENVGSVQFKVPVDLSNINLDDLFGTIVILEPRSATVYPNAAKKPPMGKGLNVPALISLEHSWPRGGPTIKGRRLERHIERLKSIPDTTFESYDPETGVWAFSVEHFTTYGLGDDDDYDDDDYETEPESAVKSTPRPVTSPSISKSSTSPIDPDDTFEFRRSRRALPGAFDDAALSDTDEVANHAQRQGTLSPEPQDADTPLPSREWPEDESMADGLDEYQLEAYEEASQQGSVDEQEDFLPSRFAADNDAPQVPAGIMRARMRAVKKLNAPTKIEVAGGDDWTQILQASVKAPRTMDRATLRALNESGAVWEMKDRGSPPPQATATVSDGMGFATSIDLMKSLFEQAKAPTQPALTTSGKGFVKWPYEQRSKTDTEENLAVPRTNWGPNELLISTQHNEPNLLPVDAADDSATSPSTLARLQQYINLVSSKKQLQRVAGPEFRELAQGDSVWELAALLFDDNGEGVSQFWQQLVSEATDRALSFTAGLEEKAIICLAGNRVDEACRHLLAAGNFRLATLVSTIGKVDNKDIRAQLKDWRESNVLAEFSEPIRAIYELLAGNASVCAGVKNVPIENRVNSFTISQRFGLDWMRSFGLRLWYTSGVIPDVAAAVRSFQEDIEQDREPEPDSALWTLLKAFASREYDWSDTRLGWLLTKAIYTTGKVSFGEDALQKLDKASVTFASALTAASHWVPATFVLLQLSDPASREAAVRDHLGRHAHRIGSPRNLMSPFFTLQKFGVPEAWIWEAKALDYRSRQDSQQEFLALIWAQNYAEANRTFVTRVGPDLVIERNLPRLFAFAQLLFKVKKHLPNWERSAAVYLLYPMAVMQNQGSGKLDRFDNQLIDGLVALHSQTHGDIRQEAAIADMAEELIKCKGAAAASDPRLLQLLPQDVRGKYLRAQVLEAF
Chain of C. thermophilum cytoplasmic filament nup complex (CFNC) (G0SBQ3 whole entry, looked up): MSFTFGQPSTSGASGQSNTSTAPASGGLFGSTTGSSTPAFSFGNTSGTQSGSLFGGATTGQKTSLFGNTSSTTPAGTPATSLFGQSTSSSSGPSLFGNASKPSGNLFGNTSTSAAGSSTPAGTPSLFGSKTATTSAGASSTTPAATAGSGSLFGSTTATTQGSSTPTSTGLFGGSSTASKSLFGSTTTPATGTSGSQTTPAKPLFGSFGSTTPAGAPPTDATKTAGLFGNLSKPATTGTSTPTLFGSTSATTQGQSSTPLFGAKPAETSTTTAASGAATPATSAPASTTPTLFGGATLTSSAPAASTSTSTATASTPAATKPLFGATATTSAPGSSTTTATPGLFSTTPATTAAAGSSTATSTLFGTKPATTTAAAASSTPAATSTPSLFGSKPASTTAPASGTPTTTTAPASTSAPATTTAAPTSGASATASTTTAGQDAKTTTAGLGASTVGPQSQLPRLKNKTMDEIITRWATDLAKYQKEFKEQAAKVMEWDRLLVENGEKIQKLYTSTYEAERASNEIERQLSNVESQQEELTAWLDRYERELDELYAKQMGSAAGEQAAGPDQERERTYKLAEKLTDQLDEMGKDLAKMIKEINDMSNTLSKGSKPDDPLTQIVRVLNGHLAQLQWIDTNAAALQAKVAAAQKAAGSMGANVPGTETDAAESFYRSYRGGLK
Chain of C. thermophilum cytoplasmic filament nup complex (CFNC) (G0SBS8 whole entry, looked up): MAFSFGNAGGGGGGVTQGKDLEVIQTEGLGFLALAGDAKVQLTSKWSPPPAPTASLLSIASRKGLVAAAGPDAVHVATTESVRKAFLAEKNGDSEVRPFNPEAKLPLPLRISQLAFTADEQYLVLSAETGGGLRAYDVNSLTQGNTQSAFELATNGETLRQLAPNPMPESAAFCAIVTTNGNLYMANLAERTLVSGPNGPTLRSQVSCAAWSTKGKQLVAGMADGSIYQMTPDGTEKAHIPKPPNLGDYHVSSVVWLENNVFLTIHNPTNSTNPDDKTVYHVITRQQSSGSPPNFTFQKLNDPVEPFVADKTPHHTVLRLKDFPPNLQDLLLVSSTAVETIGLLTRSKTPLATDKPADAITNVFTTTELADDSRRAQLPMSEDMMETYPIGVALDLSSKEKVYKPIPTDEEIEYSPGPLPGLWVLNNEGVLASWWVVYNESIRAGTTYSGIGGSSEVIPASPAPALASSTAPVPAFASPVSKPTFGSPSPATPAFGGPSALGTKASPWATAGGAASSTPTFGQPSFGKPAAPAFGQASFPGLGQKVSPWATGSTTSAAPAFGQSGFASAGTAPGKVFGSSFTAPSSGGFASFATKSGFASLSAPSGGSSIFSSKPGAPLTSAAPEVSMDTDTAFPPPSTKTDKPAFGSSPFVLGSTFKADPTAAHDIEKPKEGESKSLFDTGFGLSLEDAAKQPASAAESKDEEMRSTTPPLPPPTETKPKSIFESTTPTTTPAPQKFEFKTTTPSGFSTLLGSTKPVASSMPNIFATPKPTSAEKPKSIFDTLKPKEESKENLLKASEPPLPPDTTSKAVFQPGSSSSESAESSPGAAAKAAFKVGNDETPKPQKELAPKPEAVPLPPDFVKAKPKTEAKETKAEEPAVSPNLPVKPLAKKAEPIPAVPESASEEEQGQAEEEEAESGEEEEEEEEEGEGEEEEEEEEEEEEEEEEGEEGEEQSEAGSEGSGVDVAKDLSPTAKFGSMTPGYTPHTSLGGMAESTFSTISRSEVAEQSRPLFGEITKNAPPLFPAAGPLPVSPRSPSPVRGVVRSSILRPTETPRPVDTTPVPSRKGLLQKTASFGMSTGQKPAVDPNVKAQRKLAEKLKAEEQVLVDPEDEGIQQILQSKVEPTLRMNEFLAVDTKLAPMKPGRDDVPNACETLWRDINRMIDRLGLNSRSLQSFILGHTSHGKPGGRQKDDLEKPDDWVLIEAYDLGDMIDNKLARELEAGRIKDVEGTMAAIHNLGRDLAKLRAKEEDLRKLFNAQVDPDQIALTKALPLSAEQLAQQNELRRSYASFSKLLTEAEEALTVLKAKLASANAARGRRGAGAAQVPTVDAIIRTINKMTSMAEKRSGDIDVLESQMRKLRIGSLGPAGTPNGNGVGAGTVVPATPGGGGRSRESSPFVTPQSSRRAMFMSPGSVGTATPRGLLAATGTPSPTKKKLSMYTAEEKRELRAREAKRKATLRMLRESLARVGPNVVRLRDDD
Chain of C. thermophilum cytoplasmic filament nup complex (CFNC) (G0S4F3 whole entry, looked up): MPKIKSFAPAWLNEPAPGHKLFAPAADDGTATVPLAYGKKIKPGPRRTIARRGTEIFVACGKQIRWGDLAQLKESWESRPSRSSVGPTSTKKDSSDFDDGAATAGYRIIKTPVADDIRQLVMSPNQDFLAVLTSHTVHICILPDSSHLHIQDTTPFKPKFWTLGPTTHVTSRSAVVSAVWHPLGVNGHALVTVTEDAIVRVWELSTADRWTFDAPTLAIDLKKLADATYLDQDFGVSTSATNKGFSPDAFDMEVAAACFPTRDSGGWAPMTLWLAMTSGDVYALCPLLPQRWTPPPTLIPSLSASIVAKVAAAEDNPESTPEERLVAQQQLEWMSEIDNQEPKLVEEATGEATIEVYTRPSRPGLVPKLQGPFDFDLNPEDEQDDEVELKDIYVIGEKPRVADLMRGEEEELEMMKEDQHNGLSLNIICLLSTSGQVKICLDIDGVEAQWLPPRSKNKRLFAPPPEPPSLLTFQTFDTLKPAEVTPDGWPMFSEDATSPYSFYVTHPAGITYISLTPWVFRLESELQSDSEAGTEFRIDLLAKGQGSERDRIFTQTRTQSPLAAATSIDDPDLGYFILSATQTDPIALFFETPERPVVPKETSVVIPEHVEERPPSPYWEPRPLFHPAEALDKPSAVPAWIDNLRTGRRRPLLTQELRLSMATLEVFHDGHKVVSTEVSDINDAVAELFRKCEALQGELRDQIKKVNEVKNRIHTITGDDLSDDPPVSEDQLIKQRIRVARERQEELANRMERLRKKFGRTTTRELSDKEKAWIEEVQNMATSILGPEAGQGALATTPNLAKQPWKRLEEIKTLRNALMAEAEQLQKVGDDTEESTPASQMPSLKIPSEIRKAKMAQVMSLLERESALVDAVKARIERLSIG

Molecule | stoichiometry N [2] | also measured
C. thermophilum cytoplasmic filament nup complex (CFNC) (from UniProt G0S4F3 1-882; G0SBS8 1-1481; G0SBQ3 1-678; G0SAK3 1-993) | – | stoichiometry N [1]: 2
RWAEDQNSLLKMICQQVEAIKKEMQELKLNS (domain or fragment, human, UniProt P49792 802-832, looked up) [NUP358^OE] | 2 and 4 | –
NUP358^1–832 (domain or fragment, human, UniProt P49792 1-832, looked up) MRRSKADVERYIASVQGSTPSPRQKSMKGFYFAKLYYEAKEYDLAKKYICTYINVQERDPKAHRFLGLLYELEENTDKAVECYRRSVELNPTQKDLVLKIAELLCKNDVTDGRAKYWLERAAKLFPGSPAIYKLKEQLLDCEGEDGWNKLFDLIQSELYVRPDDVHVNIRLVEVYRSTKRLKDAVAHCHEAERNIALRSSLEWNSCVVQTLKEYLESLQCLESDKSDWRATNTDLLLAYANLMLLTLSTRDVQESRELLQSFDSALQSVKSLGGNDELSATFLEMKGHFYMHAGSLLLKMGQHSSNVQWRALSELAALCYLIAFQVPRPKIKLIKGEAGQNLLEMMACDRLSQSGHMLLNLSRGKQDFLKEIVETFANKSGQSALYDALFSSQSPKDTSFLGSDDIGNIDVREPELEDLTRYDVGAIRAHNGSLQHLTWLGLQWNSLPALPGIRKWLKQLFHHLPHETSRLETNAPESICILDLEVFLLGVVYTSHLQLKEKCNSHHSSYQPLCLPLPVCKQLCTERQKSWWDAVCTLIHRKAVPGNVAKLRLLVQHEINTLRAQEKHGLQPALLVHWAECLQKTGSGLNSFYDQREYIGRSVHYWKKVLPLLKIIKKKNSIPEPIDPLFKHFHSVDIQASEIVEYEEDAHITFAILDAVNGNIEDAVTAFESIKSVVSYWNLALIFHRKAEDIENDALSPEEQEECKNYLRKTRDYLIKIIDDSDSNLSVVKKLPVPLESVKEMLNSVMQELEDYSEGGPLYKNGSLRNADSEIKHSTPSPTRYSLSPSKSYKYSPKTPPRWAEDQNSLLKMICQQVEAIKKEMQELKLNS | 4 and 5 | –
NUP358^NTD (domain or fragment, human, UniProt P49792 1-752, looked up) MRRSKADVERYIASVQGSTPSPRQKSMKGFYFAKLYYEAKEYDLAKKYICTYINVQERDPKAHRFLGLLYELEENTDKAVECYRRSVELNPTQKDLVLKIAELLCKNDVTDGRAKYWLERAAKLFPGSPAIYKLKEQLLDCEGEDGWNKLFDLIQSELYVRPDDVHVNIRLVEVYRSTKRLKDAVAHCHEAERNIALRSSLEWNSCVVQTLKEYLESLQCLESDKSDWRATNTDLLLAYANLMLLTLSTRDVQESRELLQSFDSALQSVKSLGGNDELSATFLEMKGHFYMHAGSLLLKMGQHSSNVQWRALSELAALCYLIAFQVPRPKIKLIKGEAGQNLLEMMACDRLSQSGHMLLNLSRGKQDFLKEIVETFANKSGQSALYDALFSSQSPKDTSFLGSDDIGNIDVREPELEDLTRYDVGAIRAHNGSLQHLTWLGLQWNSLPALPGIRKWLKQLFHHLPHETSRLETNAPESICILDLEVFLLGVVYTSHLQLKEKCNSHHSSYQPLCLPLPVCKQLCTERQKSWWDAVCTLIHRKAVPGNVAKLRLLVQHEINTLRAQEKHGLQPALLVHWAECLQKTGSGLNSFYDQREYIGRSVHYWKKVLPLLKIIKKKNSIPEPIDPLFKHFHSVDIQASEIVEYEEDAHITFAILDAVNGNIEDAVTAFESIKSVVSYWNLALIFHRKAEDIENDALSPEEQEECKNYLRKTRDYLIKIIDDSDSNLSVVKKLPVPLESVKEMLNSVMQE | – | stoichiometry N [3]: 2
